Test results taken from FireProtDB (doi:10.1002/pro.5560041213).

B1: High-potential iron-sulfur protein isozyme 1, P04168 (parent)
chain: EPRAEDGHAHDYVNEAADASGHPRYQEGQLCENCAFWGEAVQDGWGRCTHPDFDEVLVKAEGWCSVYAPAS

Variants of: B1
Conditions: Halorhodospira halophila, Thermal, DSC, reversible: yes, structure 2HIP, whole UniProt chain shown

## Y12W
pH 7, MOPS 20 mM
  Tm: 37.4 °C

## Y12H
pH 7, MOPS 20 mM
  Tm: 42.2 °C
pH 9, TAPS 20 mM
  Tm: 39 °C

## Y12F
pH 9, TAPS 20 mM
  Tm: 54.4 °C
pH 10, CAPS 20 mM
  Tm: 54.2 °C
pH 10.8, CHES 20 mM
  Tm: 37.1 °C
